The values that follow come from IntAct's records for PubMed 31515488.

B1: Nanos homolog 2 (Homo sapiens), P60321 (parent)
chain: MQLPPFDMWKDYFNLSQVVWALIASRGQRLETQEIEEPSPGPPLGQDQGLGAPGANGGLGTLCNFCKHNGESRHVYSSHQLKTPDGVVVCPILRHYVCPVCGATGDQAHTLKYCPLNGGQQSLYRRSGRNSAGRRVKR
B2: Aflatoxin B1 aldehyde reductase member 2 (Homo sapiens), O43488 (parent)
chain: MLSAASRVVSRAAVHCALRSPPPEARALAMSRPPPPRVASVLGTMEMGRRMDAPASAAAVRAFLERGHTELDTAFMYSDGQSETILGGLGLGLGGGDCRVKIATKANPWDGKSLKPDSVRSQLETSLKRLQCPQVDLFYLHAPDHGTPVEETLHACQRLHQEGKFVELGLSNYASWEVAEICTLCKSNGWILPTVYQGMYNATTRQVETELFPCLRHFGLRFYAYNPLAGGLLTGKYKYEDKDGKQPVGRFFGNSWAETYRNRFWKEHHFEAIALVEKALQAAYGASAPSVTSAALRWMYHHSQLQGAHGDAVILGMSSLEQLEQNLAATEEGPLEPAVVDAFNQAWHLVAHECPNYFR
partner: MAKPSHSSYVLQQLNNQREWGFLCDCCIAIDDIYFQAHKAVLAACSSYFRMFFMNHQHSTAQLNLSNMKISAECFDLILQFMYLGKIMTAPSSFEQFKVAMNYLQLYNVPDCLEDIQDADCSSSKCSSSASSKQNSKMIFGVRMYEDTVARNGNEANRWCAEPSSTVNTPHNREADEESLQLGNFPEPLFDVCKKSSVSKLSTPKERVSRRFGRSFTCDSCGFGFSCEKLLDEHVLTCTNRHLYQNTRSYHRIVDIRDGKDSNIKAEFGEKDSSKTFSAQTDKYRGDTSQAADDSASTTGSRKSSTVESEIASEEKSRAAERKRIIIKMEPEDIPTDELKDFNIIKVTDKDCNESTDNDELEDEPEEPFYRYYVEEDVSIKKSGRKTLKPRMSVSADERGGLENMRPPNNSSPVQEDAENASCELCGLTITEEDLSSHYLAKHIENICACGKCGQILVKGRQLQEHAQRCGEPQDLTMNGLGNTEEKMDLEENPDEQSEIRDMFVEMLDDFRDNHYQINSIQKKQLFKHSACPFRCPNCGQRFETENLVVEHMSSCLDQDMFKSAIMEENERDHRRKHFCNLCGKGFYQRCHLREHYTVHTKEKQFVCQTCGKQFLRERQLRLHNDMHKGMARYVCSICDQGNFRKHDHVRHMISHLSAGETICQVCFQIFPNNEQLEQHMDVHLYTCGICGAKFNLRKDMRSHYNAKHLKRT
B3: G protein pathway suppressor 2 (Homo sapiens), Q13227 (parent)
chain: MPALLERPKLSNAMARALHRHIMMERERKRQEEEEVDKMMEQKMKEEQERRKKKEMEERMSLEETKEQILKLEEKLLALQEEKHQLFLQLKKVLHEEEKRRRKEQSDLTTLTSAAYQQSLTVHTGTHLLSMQGSPGGHNRPGTLMAADRAKQMFGPQVLTTRHYVGSAAAFAGTPEHGQFQGSPGGAYGTAQPPPHYGPTQPAYSPSQQLRAPSAFPAVQYLSQPQPQPYAVHGHFQPTQTGFLQPGGALSLQKQMEHANQQTGFSDSSSLRPMHPQALHPAPGLLASPQLPVQMQPAGKSGFAATSQPGPRLPFIQHSQNPRFYHK
partner: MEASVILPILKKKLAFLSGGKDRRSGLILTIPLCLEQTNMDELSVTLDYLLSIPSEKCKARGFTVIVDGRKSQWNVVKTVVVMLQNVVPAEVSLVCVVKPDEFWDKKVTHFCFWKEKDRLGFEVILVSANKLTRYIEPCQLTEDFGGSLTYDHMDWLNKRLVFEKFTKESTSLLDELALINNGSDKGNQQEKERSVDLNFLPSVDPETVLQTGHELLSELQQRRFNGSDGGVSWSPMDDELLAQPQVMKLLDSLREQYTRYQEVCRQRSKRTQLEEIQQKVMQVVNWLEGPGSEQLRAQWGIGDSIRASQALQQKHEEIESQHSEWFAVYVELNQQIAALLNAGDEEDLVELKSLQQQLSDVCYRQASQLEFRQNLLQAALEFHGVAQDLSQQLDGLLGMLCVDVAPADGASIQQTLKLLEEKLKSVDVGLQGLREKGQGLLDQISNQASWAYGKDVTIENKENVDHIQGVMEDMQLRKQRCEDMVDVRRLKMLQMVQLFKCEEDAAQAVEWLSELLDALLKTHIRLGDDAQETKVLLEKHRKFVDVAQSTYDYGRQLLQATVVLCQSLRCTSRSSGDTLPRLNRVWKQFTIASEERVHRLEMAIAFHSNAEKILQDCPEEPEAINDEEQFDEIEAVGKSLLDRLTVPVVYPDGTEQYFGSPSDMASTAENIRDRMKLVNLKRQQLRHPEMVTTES
B4: Cyclin-H (Homo sapiens), P51946 (parent)
chain: MYHNSSQKRHWTFSSEEQLARLRADANRKFRCKAVANGKVLPNDPVFLEPHEEMTLCKYYEKRLLEFCSVFKPAMPRSVVGTACMYFKRFYLNNSVMEYHPRIIMLTCAFLACKVDEFNVSSPQFVGNLRESPLGQEKALEQILEYELLLIQQLNFHLIVHNPYRPFEGFLIDLKTRYPILENPEILRKTADDFLNRIALTDAYLLYTPSQIALTAILSSASRAGITMESYLSESLMLKENRTCLSQLLDIMKSMRNLVKKYEPPRSEEVAVLKQKLERCHSAELALNVITKKRKGYEDDDYVSKKSKHEEEEWTDDDLVESL
partner: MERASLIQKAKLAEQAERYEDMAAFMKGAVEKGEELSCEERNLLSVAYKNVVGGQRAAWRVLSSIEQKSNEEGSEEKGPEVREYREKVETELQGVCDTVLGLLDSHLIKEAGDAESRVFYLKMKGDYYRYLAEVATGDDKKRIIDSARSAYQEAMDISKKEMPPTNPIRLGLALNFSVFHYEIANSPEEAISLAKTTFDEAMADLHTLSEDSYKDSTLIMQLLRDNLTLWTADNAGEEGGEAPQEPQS
B5: Ligand-dependent corepressor (Homo sapiens), Q96JN0 (parent)
chain: MQRMIQQFAAEYTSKNSSTQDPSQPNSTKNQSLPKASPVTTSPTAATTQNPVLSKLLMADQDSPLDLTVRKSQSEPSEQDGVLDLSTKKSPCAGSTSLSHSPGCSSTQGNGRPGRPSQYRPDGLRSGDGVPPRSLQDGTREGFGHSTSLKVPLARSLQISEELLSRNQLSTAASLGPSGLQNHGQHLILSREASWAKPHYEFNLSRMKFRGNGALSNISDLPFLAENSAFPKMALQAKQDGKKDVSHSSPVDLKIPQVRGMDLSWESRTGDQYSYSSLVMGSQTESALSKKLRAILPKQSRKSMLDAGPDSWGSDAEQSTSGQPYPTSDQEGDPGSKQPRKKRGRYRQYNSEILEEAISVVMSGKMSVSKAQSIYGIPHSTLEYKVKERLGTLKNPPKKKMKLMRSEGPDVSVKIELDPQGEAAQSANESKNE
B6: Serine/threonine-protein kinase PAK 6 (Homo sapiens), Q9NQU5 (parent)
chain: MFRKKKKKRPEISAPQNFQHRVHTSFDPKEGKFVGLPPQWQNILDTLRRPKPVVDPSRITRVQLQPMKTVVRGSAMPVDGYISGLLNDIQKLSVISSNTLRGRSPTSRRRAQSLGLLGDEHWATDPDMYLQSPQSERTDPHGLYLSCNGGTPAGHKQMPWPEPQSPRVLPNGLAAKAQSLGPAEFQGASQRCLQLGACLQSSPPGASPPTGTNRHGMKAAKHGSEEARPQSCLVGSATGRPGGEGSPSPKTRESSLKRRLFRSMFLSTAATAPPSSSKPGPPPQSKPNSSFRPPQKDNPPSLVAKAQSLPSDQPVGTFSPLTTSDTSSPQKSLRTAPATGQLPGRSSPAGSPRTWHAQISTSNLYLPQDPTVAKGALAGEDTGVVTHEQFKAALRMVVDQGDPRLLLDSYVKIGEGSTGIVCLAREKHSGRQVAVKMMDLRKQQRRELLFNEVVIMRDYQHFNVVEMYKSYLVGEELWVLMEFLQGGALTDIVSQVRLNEEQIATVCEAVLQALAYLHAQGVIHRDIKSDSILLTLDGRVKLSDFGFCAQISKDVPKRKSLVGTPYWMAPEVISRSLYATEVDIWSLGIMVIEMVDGEPPYFSDSPVQAMKRLRDSPPPKLKNSHKVSPVLRDFLERMLVRDPQERATAQELLDHPFLLQTGLPECLVPLIQLYRKQTSTC

The variants in one assay derive from B1. The following applies: with magac_human MAGEA12, P43365.
Sequence of magac_human MAGEA12, P43365 (P43365 whole entry): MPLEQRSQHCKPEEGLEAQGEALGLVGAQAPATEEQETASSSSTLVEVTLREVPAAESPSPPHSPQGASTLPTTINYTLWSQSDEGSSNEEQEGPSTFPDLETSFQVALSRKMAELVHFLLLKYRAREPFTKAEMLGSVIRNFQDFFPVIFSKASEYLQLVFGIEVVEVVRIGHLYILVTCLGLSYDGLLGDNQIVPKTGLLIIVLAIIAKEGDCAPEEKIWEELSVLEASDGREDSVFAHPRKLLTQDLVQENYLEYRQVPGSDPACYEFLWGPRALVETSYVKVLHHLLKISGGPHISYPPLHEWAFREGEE
Take H68Q: the “effect of a mutation on the interaction” value is “with no effect”. Still for that read-out and setting: then F13L, with “with no effect”.

Variants of B1 are the subject of the next assay. The following applies: with ccdb1_human CCNDBP1, O95273.
Sequence of ccdb1_human CCNDBP1, O95273 (O95273 whole entry): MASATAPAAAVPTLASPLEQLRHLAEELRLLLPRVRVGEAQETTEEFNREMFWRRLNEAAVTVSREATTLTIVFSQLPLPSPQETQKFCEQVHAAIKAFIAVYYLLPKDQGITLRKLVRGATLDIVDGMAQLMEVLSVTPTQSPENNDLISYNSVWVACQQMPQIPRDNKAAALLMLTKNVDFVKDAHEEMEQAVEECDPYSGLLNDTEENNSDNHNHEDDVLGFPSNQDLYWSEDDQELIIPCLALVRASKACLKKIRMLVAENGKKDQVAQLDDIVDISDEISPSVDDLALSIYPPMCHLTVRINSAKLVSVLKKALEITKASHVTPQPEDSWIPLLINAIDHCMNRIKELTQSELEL
Regarding H68Q, the “effect of a mutation on the interaction” value is given as “with no effect”.

As for F13L, the “effect of a mutation on the interaction” value is “with no effect”.

In a further assay the parent is B2. The following applies: with zbtb1_human ZBTB1, Q9Y2K1.
Regarding A142T, the “effect of a mutation on the interaction” value was “disrupting interaction strength”.

The variants in another assay derive from B3. The following applies: with sesd1_human SESTD1, Q86VW0.
Consider A215T, for which the “effect of a mutation on the interaction” value is on record as “with no effect”.

A further assay covers variants of B4. The following applies: with 1433s_human SFN.
Regarding N155T, the “effect of a mutation on the interaction” value is on record as “with no effect”.

Variants of B5 are the subject of another assay. The following applies: with ctbp2_human CTBP2, P56545.
T44M: the “effect of a mutation on the interaction” value is “with no effect”.

In another assay the parent is B6. The following applies: with rhoj_human RHOJ.
Turning to V54M, the “effect of a mutation on the interaction” value is on record as “with no effect”. For H215R, the “effect of a mutation on the interaction” value is given as “with no effect”. As to R103C, the “effect of a mutation on the interaction” value is “with no effect”. With L514R, the “effect of a mutation on the interaction” value is given as “disrupting interaction strength”.
